Experiments:
[1] = target: T1, Prim–PolC (Msm Prim–PolC) (Mycolicibacterium smegmatis, UniProt A0R5T1); assay: X-ray crystal structure, […] Å; assay type: binding; conditions: pre-catalytic ternary complex with 2-nt gapped DNA and two Mn2+; active site; pH 6.5
T1 construct: gene ligD; residues 4-336 printed for the crystal structure (may be the ordered part of the full-length protein); N-terminal His tag, pET28, made in E. coli Origami B pLysS
T1 sequence (A0R5T1 4-336): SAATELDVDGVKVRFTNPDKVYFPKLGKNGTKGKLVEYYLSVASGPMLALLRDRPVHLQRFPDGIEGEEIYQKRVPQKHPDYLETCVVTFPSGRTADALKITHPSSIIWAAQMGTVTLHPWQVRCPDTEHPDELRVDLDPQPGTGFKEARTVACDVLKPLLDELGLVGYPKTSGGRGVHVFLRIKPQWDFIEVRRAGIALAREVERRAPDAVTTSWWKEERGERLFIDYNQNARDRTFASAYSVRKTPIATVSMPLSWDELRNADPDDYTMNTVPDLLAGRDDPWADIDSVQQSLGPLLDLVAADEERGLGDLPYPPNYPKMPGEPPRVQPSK

Prim-PolC WT = target: T2, Prim-PolC WT (UniProt A0R5T1 1-350); assay: 2-aminopurine fluorescence (base flipping); 5 mM Ca2+, 250 uM ATP; Crystals: 0.05 M Na cacodylate pH 6.5, 2 M ammonium sulfate, 0.01 M MnCl2, 285 K, 300 uM protein:600 uM DNA; 2-AP assay: 0-1 uM protein, 1 uM DNA, 5 mM Ca2+, 250 uM ATP (buffer, pH and temperature not in material); conditions: protein: recombinant, tags: N-terminal His, label: 2-AP, gapped duplex
T2 sequence: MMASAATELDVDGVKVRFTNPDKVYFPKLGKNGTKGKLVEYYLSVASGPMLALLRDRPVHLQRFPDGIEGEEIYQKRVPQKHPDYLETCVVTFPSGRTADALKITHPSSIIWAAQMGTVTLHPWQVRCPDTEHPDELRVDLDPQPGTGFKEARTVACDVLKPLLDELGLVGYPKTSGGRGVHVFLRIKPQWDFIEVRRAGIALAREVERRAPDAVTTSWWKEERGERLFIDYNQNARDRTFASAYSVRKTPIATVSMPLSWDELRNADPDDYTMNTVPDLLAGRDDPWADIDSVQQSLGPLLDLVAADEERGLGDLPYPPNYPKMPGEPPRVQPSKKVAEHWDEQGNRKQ

Prim-PolC N321A = target: T3, Prim-PolC N321A (UniProt A0R5T1 1-350, N321A); assay: 2-aminopurine fluorescence (base flipping); 5 mM Ca2+, 250 uM ATP; similar to WT; Crystals: 0.05 M Na cacodylate pH 6.5, 2 M ammonium sulfate, 0.01 M MnCl2, 285 K, 300 uM protein:600 uM DNA; 2-AP assay: 0-1 uM protein, 1 uM DNA, 5 mM Ca2+, 250 uM ATP (buffer, pH and temperature not in material); conditions: protein: recombinant; tags: N-terminal His; label: 2-AP; gapped duplex, 1-nt gap
T3 sequence: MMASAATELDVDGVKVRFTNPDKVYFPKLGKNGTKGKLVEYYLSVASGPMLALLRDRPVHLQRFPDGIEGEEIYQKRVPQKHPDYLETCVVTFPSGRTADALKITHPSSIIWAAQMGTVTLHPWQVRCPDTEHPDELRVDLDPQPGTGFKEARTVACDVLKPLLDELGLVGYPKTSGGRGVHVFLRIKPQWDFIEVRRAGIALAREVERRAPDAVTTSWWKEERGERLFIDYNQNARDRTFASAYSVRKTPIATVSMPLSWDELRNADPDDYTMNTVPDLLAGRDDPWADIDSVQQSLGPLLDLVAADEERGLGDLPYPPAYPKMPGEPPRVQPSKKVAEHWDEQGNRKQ

Prim-PolC N321G = target: T4, Prim-PolC N321G (UniProt A0R5T1 1-350, N321G); assay: as above; conditions: protein: recombinant, tags: N-terminal His, label: 2-AP, gapped duplex
T4 sequence: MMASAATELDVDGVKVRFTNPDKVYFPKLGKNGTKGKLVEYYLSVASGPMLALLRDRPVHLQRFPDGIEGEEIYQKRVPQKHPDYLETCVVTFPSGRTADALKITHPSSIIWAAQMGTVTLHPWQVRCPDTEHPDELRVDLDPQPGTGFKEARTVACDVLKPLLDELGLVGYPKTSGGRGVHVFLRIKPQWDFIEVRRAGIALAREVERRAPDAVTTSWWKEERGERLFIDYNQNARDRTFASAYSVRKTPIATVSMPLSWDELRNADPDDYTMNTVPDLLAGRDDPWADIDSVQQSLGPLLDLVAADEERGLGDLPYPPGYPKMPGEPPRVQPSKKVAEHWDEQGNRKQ

[2] = target: T5, Prim-PolC (crystallisation construct) (UniProt A0R5T1 4-336); assay: X-ray crystallography (2.2 A); Mn2+, UpNHpp; Crystals: 0.05 M Na cacodylate pH 6.5, 2 M ammonium sulfate, 0.01 M MnCl2, 285 K, 300 uM protein:600 uM DNA; 2-AP assay: 0-1 uM protein, 1 uM DNA, 5 mM Ca2+, 250 uM ATP (buffer, pH and temperature not in material); conditions: protein: recombinant; tags: N-terminal His; gapped duplex, 2-nt gap (AA), blunt outer ends
T5 sequence: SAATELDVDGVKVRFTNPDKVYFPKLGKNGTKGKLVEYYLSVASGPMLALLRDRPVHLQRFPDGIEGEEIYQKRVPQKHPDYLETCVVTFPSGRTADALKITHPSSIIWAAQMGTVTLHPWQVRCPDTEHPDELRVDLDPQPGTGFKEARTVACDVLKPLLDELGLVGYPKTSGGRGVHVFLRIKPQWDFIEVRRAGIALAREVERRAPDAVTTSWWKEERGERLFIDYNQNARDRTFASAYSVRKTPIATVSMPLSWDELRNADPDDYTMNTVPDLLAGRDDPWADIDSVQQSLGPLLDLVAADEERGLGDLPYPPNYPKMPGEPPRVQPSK

[3] = target: T5, Prim-PolC (crystallisation construct); assay: X-ray crystallography (2.0 A); Mn2+; PPi in one complex, 3'-dUTP in the other; Crystals: 0.05 M Na cacodylate pH 6.5, 2 M ammonium sulfate, 0.01 M MnCl2, 285 K, 300 uM protein:600 uM DNA; 2-AP assay: 0-1 uM protein, 1 uM DNA, 5 mM Ca2+, 250 uM ATP (buffer, pH and temperature not in material); conditions: protein: recombinant; tags: N-terminal His; gapped duplex, 1-nt gap, blunt outer ends

In the case of O=c1ccn([C@@H]2O[C@H](COP(=O)(O)NP(=O)(O)OP(=O)(O)O)[C@@H](O)[C@H]2O)c(=O)[nH]1 [UpNHpp], the “X-ray crystal structure, 2.21 Å” value [1] is reported as “a non-hydrolysable incoming UTP ribonucleotide (UpNHpp) and manganese ions were also included”.

B1: 2-AP 1-nt gap substrate (dsDNA)
DNA 1: AGTCGCATAGTGTAGTCATGTCGATTCGCCATAG
DNA 2: CTATGAGCGAATCGAC
DNA 3: CGACTACACTATGCGACT
modifications: 2-aminopurine at position 15 of primer oKZ282 (written A); 5'-phosphate on downstream strand
B1: binds (Prim-PolC WT; 1-nt gap); binds (Prim-PolC N321A); binds (Prim-PolC N321G; 1-nt gap).

B2: 2-AP 2-nt gap substrate (dsDNA)
DNA 1: AGTCGCATAGTGTAGTCATGTCGATTCGCCATAG
DNA 2: CTATGAGCGAATCGAC
DNA 3: GACTACACTATGCGACT
modifications: 2-aminopurine at position 15 of primer oKZ282 (written A); 5'-phosphate on downstream strand
B2: binds (Prim-PolC WT; 2-nt gap).

B3: 2-AP 3-nt gap substrate (dsDNA)
DNA 1: AGTCGCATAGTGTAGTCATGTCGATTCGCCATAG
DNA 2: CTATGAGCGAATCGAC
DNA 3: ACTACACTATGCGACT
modifications: 2-aminopurine at position 15 of primer oKZ282 (written A); 5'-phosphate on downstream strand
B3: binds (Prim-PolC N321G; 3-nt gap).

B4: 2-nt gapped DNA T/P/D (dsDNA)
DNA 1: CGCTCGCAACGCACG
DNA 2: CGTGCG
DNA 3: GCGAGCG
modifications: 5'-phosphate on D strand
B4: binds [2].

B5: 1-nt gapped post-catalytic DNA (mixed)
DNA 1: CGCTCGCAACGCACG
DNA 2: CGTGCGU
?: GCGAGCG
modifications: 5'-phosphate on D strand; primer 3' terminus is 3'-deoxyuridine (ribo, incorporated in situ)
B5: binds [3].

Source: publication PMC7442782, “Molecular basis for DNA repair synthesis on short gaps by mycobacterial Primase-Polymerase C” (Nature Communications, 2020)
